Data reported in paper PMC9352680, “A comprehensive thermodynamic model for RNA binding by the Saccharomyces cerevisiae Pumilio protein PUF4”.

T1: PUF4 RNA-binding domain (Saccharomyces cerevisiae, UniProt P25339 537-888)
T1 sequence: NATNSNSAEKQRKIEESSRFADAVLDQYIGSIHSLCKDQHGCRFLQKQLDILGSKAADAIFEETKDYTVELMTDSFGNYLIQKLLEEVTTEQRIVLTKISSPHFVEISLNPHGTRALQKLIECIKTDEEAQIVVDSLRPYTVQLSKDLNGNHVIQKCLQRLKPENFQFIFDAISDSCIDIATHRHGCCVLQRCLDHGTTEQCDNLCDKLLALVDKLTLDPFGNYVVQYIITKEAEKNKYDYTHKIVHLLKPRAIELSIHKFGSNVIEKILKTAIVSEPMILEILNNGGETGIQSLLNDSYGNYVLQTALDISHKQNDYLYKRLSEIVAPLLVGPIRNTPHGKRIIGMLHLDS


Target: T1, PUF4 RNA-binding domain
Assay: Mg; RNA-MaP; 20 mM Na-HEPES pH 7.4, 30 mM KOAc, 0.75 mM MgCl2, 0.1% Tween-20, 5% glycerol, 0.1 mg/mL BSA, 2 mM DTT; 25 C; 0.0125-409.6 nM protein
Conditions: tags: N-His6-TEV cleaved; C-SNAP kept, Cy3B-labelled; label: tethered on chip by stalled RNA polymerase

Row | Binder | Kd
1 | UCUCUUUGUCUAUUGUCUCUU (ssRNA) [Ib_S1_P4E.1_K4.1_C4.1_H4.1_[A4C]_A4.1_F4.1_[A9G]_T4.1] | 569 nM
2 | UCUCUUUGUUUAUUCUCUCUU (ssRNA) [Ib_S1_P4E.1_K4.1_C4.1_H4.1_[A4T]_A4.1_F4.1_[A9C]_T4.1] | 804 nM
3 | Ic_S4_P4E.1_K4.1_C4.1_H4.1_A4.1_[T5G]_[A6C]_[T7G]_F4.1_[T8G]_[A9C]_T4.1 (ssRNA) RNA: UUUGACAACUGAUCGUUCUUUCUUGUAGCGGCUUCUUUCUCGAUCAGUUGUCUUU | > 2300 nM
4 | Ic_S4_P4E.1_K4.1_C4.1_H4.1_A4.1_[T5G]_[A6C]_[T7A]_F4.1_[A9G]_T4.1 (ssRNA) RNA: UUUGACAACUGAUCGUUCUUUCUUGUAGCAUGUUCUUUCUCGAUCAGUUGUCUUU | 51.3 nM
5 | Ic_S4_P4E.1_K4.1_C4.1_H4.1_A4.1_[T5G]_[A6C]_[T7C]_F4.1_[T8C]_[A9C]_T4.1 (ssRNA) RNA: UUUGACAACUGAUCGUUCUUUCUUGUAGCCCCUUCUUUCUCGAUCAGUUGUCUUU | 786 nM
6 | Ic_S4_P4E.1_K4.1_C4.1_H4.1_A4.1_[T5G]_[A6C]_[T7C]_F4.1_[T8C]_T4.1 (ssRNA) RNA: UUUGACAACUGAUCGUUCUUUCUUGUAGCCCAUUCUUUCUCGAUCAGUUGUCUUU | 997 nM
7 | Ic_S4_P4E.1_K4.1_C4.1_H4.1_A4.1_[T5G]_[A6C]_[T7A]_F4.1_[T8G]_[A9T]_T4.1 (ssRNA) RNA: UUUGACAACUGAUCGUUCUUUCUUGUAGCAGUUUCUUUCUCGAUCAGUUGUCUUU | 495 nM
8 | Ic_S4_P4E.1_K4.1_C4.1_H4.1_A4.1_[T5G]_[A6C]_F4.1_[T8C]_T4.1 (ssRNA) RNA: UUUGACAACUGAUCGUUCUUUCUUGUAGCUCAUUCUUUCUCGAUCAGUUGUCUUU | 365 nM
9 | Ic_S4_P4E.1_K4.1_C4.1_H4.1_A4.1_[T5G]_[A6C]_[T7A]_F4.1_[A9C]_T4.1 (ssRNA) RNA: UUUGACAACUGAUCGUUCUUUCUUGUAGCAUCUUCUUUCUCGAUCAGUUGUCUUU | 61.1 nM
10 | Ic_S4_P4E.1_K4.1_C4.1_H4.1_A4.1_[T5G]_[A6C]_[T7C]_F4.1_[A9C]_T4.1 (ssRNA) RNA: UUUGACAACUGAUCGUUCUUUCUUGUAGCCUCUUCUUUCUCGAUCAGUUGUCUUU | 747 nM
11 | Ic_S4_P4E.1_K4.1_C4.1_H4.1_A4.1_[T5G]_[A6C]_[T7C]_F4.1_[T8A]_[A9T]_T4.1 (ssRNA) RNA: UUUGACAACUGAUCGUUCUUUCUUGUAGCCAUUUCUUUCUCGAUCAGUUGUCUUU | 428 nM
12 | Ic_S4_P4E.1_K4.1_C4.1_H4.1_A4.1_[T5G]_[A6C]_[T7G]_F4.1_[T8C]_[A9C]_T4.1 (ssRNA) RNA: UUUGACAACUGAUCGUUCUUUCUUGUAGCGCCUUCUUUCUCGAUCAGUUGUCUUU | 1050 nM
13 | Ic_S4_P4E.1_K4.1_C4.1_H4.1_A4.1_[T5G]_[A6C]_[T7A]_F4.1_[T8C]_T4.1 (ssRNA) RNA: UUUGACAACUGAUCGUUCUUUCUUGUAGCACAUUCUUUCUCGAUCAGUUGUCUUU | 772 nM
14 | Ic_S4_P4E.1_K4.1_C4.1_H4.1_A4.1_[T5G]_[A6C]_[T7A]_F4.1_[T8A]_[A9C]_T4.1 (ssRNA) RNA: UUUGACAACUGAUCGUUCUUUCUUGUAGCAACUUCUUUCUCGAUCAGUUGUCUUU | 1350 nM
15 | Ic_S4_P4E.1_K4.1_C4.1_H4.1_A4.1_[T5G]_[A6C]_[T7C]_F4.1_[T8A]_T4.1 (ssRNA) RNA: UUUGACAACUGAUCGUUCUUUCUUGUAGCCAAUUCUUUCUCGAUCAGUUGUCUUU | 780 nM
16 | Ic_S4_P4E.1_K4.1_C4.1_H4.1_A4.1_[T5G]_[A6C]_F4.1_[A9T]_T4.1 (ssRNA) RNA: UUUGACAACUGAUCGUUCUUUCUUGUAGCUUUUUCUUUCUCGAUCAGUUGUCUUU | 40.5 nM
17 | Ic_S4_P4E.1_K4.1_C4.1_H4.1_A4.1_[T5G]_[A6C]_F4.1_[T8G]_[A9T]_T4.1 (ssRNA) RNA: UUUGACAACUGAUCGUUCUUUCUUGUAGCUGUUUCUUUCUCGAUCAGUUGUCUUU | 117 nM
18 | Ic_S4_P4E.1_K4.1_C4.1_H4.1_A4.1_[T5G]_[A6C]_[T7C]_F4.1_[T8C]_[A9G]_T4.1 (ssRNA) RNA: UUUGACAACUGAUCGUUCUUUCUUGUAGCCCGUUCUUUCUCGAUCAGUUGUCUUU | 1440 nM
19 | UCUCUUUGUCUAUUCUCUCUU (ssRNA) [Ib_S1_P4E.1_K4.1_C4.1_H4.1_[A4C]_A4.1_F4.1_[A9C]_T4.1] | 1920 nM
20 | UCUCUUUGUGUAUUCUCUCUU (ssRNA) [Ib_S1_P4E.1_K4.1_C4.1_H4.1_[A4G]_A4.1_F4.1_[A9C]_T4.1] | 40.4 nM
21 | UCUCUUUGUUUAUUGUCUCUU (ssRNA) [Ib_S1_P4E.1_K4.1_C4.1_H4.1_[A4T]_A4.1_F4.1_[A9G]_T4.1] | 163 nM
22 | Ic_S4_P3E.1_K3.1_C3.1_H3.1_A3.1_[T5A]_[A6C]_F3.1_[T7A]_[A8C]_T3.1 (ssRNA) RNA: UUUGACAACUGAUCGUUCUUUCUUGUAACACUUCUUUCUCGAUCAGUUGUCUUU | 144 nM
23 | Ic_S4_P3E.1_K3.1_C3.1_H3.1_A3.1_[T5A]_F3.1_[A8T]_T3.1 (ssRNA) RNA: UUUGACAACUGAUCGUUCUUUCUUGUAAAUUUUCUUUCUCGAUCAGUUGUCUUU | 19.3 nM
24 | Ic_S4_P3E.1_K3.1_C3.1_H3.1_A3.1_[A6C]_F3.1_[A8G]_T3.1 (ssRNA) RNA: UUUGACAACUGAUCGUUCUUUCUUGUAUCUGUUCUUUCUCGAUCAGUUGUCUUU | 23.4 nM
